Measurements taken from PMC4361902 (Nature, 2014).

Legend:
cryo-EM structure = molecular target: the molecule itself; experiment: cryo-EM structure
crystal structure = molecular target: the molecule itself; experiment: crystal structure

B1: AcrB as it stands in the efflux pump assembly (AcrB moiety of the AcrA-AcrB fusion) (domain or fragment, E. coli, UniProt P31224 1-1047, looked up)
chain: MPNFFIDRPIFAWVIAIIIMLAGGLAILKLPVAQYPTIAPPAVTISASYPGADAKTVQDTVTQVIEQNMNGIDNLMYMSSNSDSTGTVQITLTFESGTDADIAQVQVQNKLQLAMPLLPQEVQQQGVSVEKSSSSFLMVVGVINTDGTMTQEDISDYVAANMKDAISRTSGVGDVQLFGSQYAMRIWMNPNELNKFQLTPVDVITAIKAQNAQVAAGQLGGTPPVKGQQLNASIIAQTRLTSTEEFGKILLKVNQDGSRVLLRDVAKIELGGENYDIIAEFNGQPASGLGIKLATGANALDTAAAIRAELAKMEPFFPSGLKIVYPYDTTPFVKISIHEVVKTLVEAIILVFLVMYLFLQNFRATLIPTIAVPVVLLGTFAVLAAFGFSINTLTMFGMVLAIGLLVDDAIVVVENVERVMAEEGLPPKEATRKSMGQIQGALVGIAMVLSAVFVPMAFFGGSTGAIYRQFSITIVSAMALSVLVALILTPALCATMLKPIAKGDHGEGKKGFFGWFNRMFEKSTHHYTDSVGGILRSTGRYLVLYLIIVVGMAYLFVRLPSSFLPDEDQGVFMTMVQLPAGATQERTQKVLNEVTHYYLTKEKNNVESVFAVNGFGFAGRGQNTGIAFVSLKDWADRPGEENKVEAITMRATRAFSQIKDAMVFAFNLPAIVELGTATGFDFELIDQAGLGHEKLTQARNQLLAEAAKHPDMLTSVRPNGLEDTPQFKIDIDQEKAQALGVSINDINTTLGAAWGGSYVNDFIDRGRVKKVYVMSEAKYRMLPDDIGDWYVRAADGQMVPFSAFSSSRWEYGSPRLERYNGLPSMEILGQAAPGKSTGEAMELMEQLASKLPTGVGYDWTGMSYQERLSGNQAPSLYAISLIVVFLCLAALYESWSIPFSVMLVVPLGVIGALLAATFRGLTNDVYFQVGLLTTIGLSAKNAILIVEFAKDLMDKEGKGLIEATLDAVRMRLRPILMTSLAFILGVMPLVISTGAGSGAQNAVGTGVMGGMVTATVLAIFFVPVFFVVVRRRFSRKNEDIEHSHTVD
stoichiometry N (cryo-EM structure): 3

B2: AcrB with the C-terminal histidines removed (pET21a-acrBΔHis) (natural protein, E. coli, UniProt P31224 1-1047, looked up)
chain: MPNFFIDRPIFAWVIAIIIMLAGGLAILKLPVAQYPTIAPPAVTISASYPGADAKTVQDTVTQVIEQNMNGIDNLMYMSSNSDSTGTVQITLTFESGTDADIAQVQVQNKLQLAMPLLPQEVQQQGVSVEKSSSSFLMVVGVINTDGTMTQEDISDYVAANMKDAISRTSGVGDVQLFGSQYAMRIWMNPNELNKFQLTPVDVITAIKAQNAQVAAGQLGGTPPVKGQQLNASIIAQTRLTSTEEFGKILLKVNQDGSRVLLRDVAKIELGGENYDIIAEFNGQPASGLGIKLATGANALDTAAAIRAELAKMEPFFPSGLKIVYPYDTTPFVKISIHEVVKTLVEAIILVFLVMYLFLQNFRATLIPTIAVPVVLLGTFAVLAAFGFSINTLTMFGMVLAIGLLVDDAIVVVENVERVMAEEGLPPKEATRKSMGQIQGALVGIAMVLSAVFVPMAFFGGSTGAIYRQFSITIVSAMALSVLVALILTPALCATMLKPIAKGDHGEGKKGFFGWFNRMFEKSTHHYTDSVGGILRSTGRYLVLYLIIVVGMAYLFVRLPSSFLPDEDQGVFMTMVQLPAGATQERTQKVLNEVTHYYLTKEKNNVESVFAVNGFGFAGRGQNTGIAFVSLKDWADRPGEENKVEAITMRATRAFSQIKDAMVFAFNLPAIVELGTATGFDFELIDQAGLGHEKLTQARNQLLAEAAKHPDMLTSVRPNGLEDTPQFKIDIDQEKAQALGVSINDINTTLGAAWGGSYVNDFIDRGRVKKVYVMSEAKYRMLPDDIGDWYVRAADGQMVPFSAFSSSRWEYGSPRLERYNGLPSMEILGQAAPGKSTGEAMELMEQLASKLPTGVGYDWTGMSYQERLSGNQAPSLYAISLIVVFLCLAALYESWSIPFSVMLVVPLGVIGALLAATFRGLTNDVYFQVGLLTTIGLSAKNAILIVEFAKDLMDKEGKGLIEATLDAVRMRLRPILMTSLAFILGVMPLVISTGAGSGAQNAVGTGVMGGMVTATVLAIFFVPVFFVVVRRRFSRKNEDIEHSHTVD
stoichiometry N (crystal structure): 3

B3: TolC (tolC1392, coexpressed from pRSFduet-1-acrA-polyGS-acrZHis5-tolC1392) (natural protein)
chain: ENLMQVYQQARLSNPELRKSAADRDAAFEKINEARSPLLPQLGLGADYTYSNGYRDANGINSNATSASLQLTQSIFDMSKWRALTLQEKAAGIQDVTYQTDQQTLILNTATAYFNVLNAIDVLSYTQAQKEAIYRQLDQTTQRFNVGLVAITDVQNARAQYDTVLANEVTARNNLDNAVEQLRQITGNYYPELAALNVENFKTDKPQPVNALLKEAEKRNLSLLQARLSQDLAREQIRQAQDGHLPTLDLTASTGISDTSYSGSKTRGAAGTQYDDSNMGQNKVGLSFSLPIYQGGMVNSQVKQAQYNFVGASEQLESAHRSVVQTVRSSFNNINASISSINAYKQAVVSAQSSLDAMEAGYSVGTRTIVDVLDATTTLYNAKQELANARYNYLINQLNIKSALGTLNEQDLLALNNALSKPVSTNPENVAPQTPEQNAIAD
stoichiometry N (cryo-EM structure): 3
